In publication doi:10.1101/2020.05.30.125013 one finds stoichiometry N and percent of particles with MlaB bound to both MlaF copies data, which are given here for two molecules.

Assay [1] deals with MlaD from Acinetobacter baumannii (Acinetobacter baumannii) (UniProt V5V921). Put plainly: cryo-EM structure.
In assay [2] the target is MlaF from Acinetobacter baumannii (Acinetobacter baumannii). The experiment in a line: cryo-EM structure.

The term stoichiometry N denotes a count of units in the complex or per binding partner. In turn, “MlaD from Acinetobacter baumannii (from UniProt V5V921 1-226) (natural protein)” gave a stoichiometry N in assay [1] of 6.

B1: MlaB from Acinetobacter baumannii (natural protein)
chain: MVQYLNQELVVSGKIDFENAEQQYQAGLAIIKKQTSFPLIVDLKQLEHGNTLALAVLVQWLRQTPQKSGLHFKNVPEKMLKIIQACHLQEDLHLV
As for B1, the percent of particles with MlaB bound to both MlaF copies in assay [2] stood at 50%.
